From article PMC11061317 come the findings set out here.

The target in the test is GST-tagged Rheb-G63V expressed in HEK293T (UniProt Q15382). As to the kind of experiment: GST pull-down and immunoblotting, band intensity quantified. To be noted: HEK293T cells, transient co-expression; mean ± SEM (n = 3); parent: est. 1.0; read off a plot. For orientation: In western blotting, separated proteins are transferred to a membrane and probed.
Sequence of GST-tagged Rheb-G63V expressed in HEK293T (Q15382 whole entry G63V): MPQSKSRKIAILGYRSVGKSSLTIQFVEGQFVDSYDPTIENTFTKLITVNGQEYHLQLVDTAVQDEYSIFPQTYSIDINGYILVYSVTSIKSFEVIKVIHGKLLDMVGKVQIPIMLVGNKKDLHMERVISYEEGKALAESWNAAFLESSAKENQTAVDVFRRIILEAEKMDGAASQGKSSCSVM

Sequence of SFB-tagged ATP6AP1 (wild type, full length) (Q15904 42-470 I469del/V470del): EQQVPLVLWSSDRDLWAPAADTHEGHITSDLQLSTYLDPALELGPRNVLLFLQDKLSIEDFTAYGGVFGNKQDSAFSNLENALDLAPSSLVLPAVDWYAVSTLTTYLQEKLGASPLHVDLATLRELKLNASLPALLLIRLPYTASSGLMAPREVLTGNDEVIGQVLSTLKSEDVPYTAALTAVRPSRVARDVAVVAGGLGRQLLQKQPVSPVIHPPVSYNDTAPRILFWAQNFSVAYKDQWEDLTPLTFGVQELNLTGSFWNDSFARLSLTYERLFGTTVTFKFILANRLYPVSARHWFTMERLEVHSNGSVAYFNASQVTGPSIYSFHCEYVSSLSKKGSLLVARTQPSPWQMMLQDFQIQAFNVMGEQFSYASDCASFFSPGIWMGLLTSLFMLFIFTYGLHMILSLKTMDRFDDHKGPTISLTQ

In the case of “SFB-tagged ATP6AP1 (wild type, full length) (from UniProt Q15904) I469del; V470del”, the ratio to parent (relative to ATP6AP1) was found to be 0.77.
